# Assay results: patent US12104181B2, “Compositions and methods for treating viral infections targeting TRIM7” (THE BOARD OF REGENTS OF THE UNIVERSITY OF TEXAS SYSTEM, priority 2021, dated 2024)
# Where “and” joins values, the source holds several entries; their conditions need not be identical. Equal values may be shown once.
# B1: TRIM68: human RING type E3 ligase expressed from lentiviral vector (protein, UniProt Q6AZZ1 1-485, looked up)
# E3 ubiquitin-protein ligase …: MDPTALVEAIVEEVACPICMTFLREPMSIDCGHSFCHSCLSGLWEIPGESQNWGYTCPLCRAPVQPRNLRPNWQLANVVEKVRLLRLHPGMGLKGDLCERHGEKLKMFCKEDVLIMCEACSQSPEHEAHSVVPMEDVAWEYKWELHEALEHLKKEQEEAWKLEVGERKRTATWKIQVETRKQSIVWEFEKYQRLLEKKQPPHRQLGAEVAAALASLQREAAETMQKLELNHSELIQQSQVLWRMIAELKERSQRPVRWMLQDIQEVLNRSKSWSLQQPEPISLELKTDCRVLGLREILKTYAADVRLDPDTAYSRLIVSEDRKRVHYGDTNQKLPDNPERFYRYNIVLGSQCISSGRHYWEVEVGDRSEWGLGVCKQNVDRKEVVYLSPHYGFWVIRLRKGNEYRAGTDEYPILSLPVPPRRVGIFVDYEAHDISFYNVTDCGSHIFTFPRYPFPGRLLPYFSPCYSIGTNNTAPLAICSLDGED
# B2: TRIM67: human RING type E3 ligase expressed from lentiviral vector (protein, UniProt Q6ZTA4 1-783, looked up)
# Tripartite motif-containing …: MEEELKCPVCGSLFREPIILPCSHNVCLPCARTIAVQTPDGEQHLPQPLLLSRGSGLQAGAAAAASLEHDAAAGPACGGAGGSAAGGLGGGAGGGGDHADKLSLYSETDSGYGSYTPSLKSPNGVRVLPMVPAPPGSSAAAARGAACSSLSSSSSSITCPQCHRSASLDHRGLRGFQRNRLLEAIVQRYQQGRGAVPGTSAAAAVAICQLCDRTPPEPAATLCEQCDVLYCSACQLKCHPSRGPFAKHRLVQPPPPPPPPAEAASGPTGTAQGAPSGGGGCKSPGGAGAGATGGSTARKFPTCPEHEMENYSMYCVSCRTPVCYLCLEEGRHAKHEVKPLGAMWKQHKAQLSQALNGVSDKAKEAKEFLVQLKNILQQIQENGLDYEACLVAQCDALVDALTRQKAKLLTKVTKEREHKLKMVWDQINHCTLKLRQSTGLMEYCLEVIKENDPSGFLQISDALIKRVQVSQEQWVKGALEPKVSAEFDLTLDSEPLLQAIHQLDFIQMKCRVPPVPLLQLEKCCTRNNSVTLAWRMPPFTHSPVDGYILELDDGAGGQFREVYVGKETLCTIDGLHFNSTYNARVKAFNSSGVGPYSKTVVLQTSDVAWFTFDPNSGHRDIILSNDNQTATCSSYDDRVVLGTAAFSKGVHYWELHVDRYDNHPDPAFGVARASVVKDMMLGKDDKAWAMYVDNNRSWFMHCNSHTNRTEGGVCKGATVGVLLDLNKHTLTFFINGQQQGPTAFSHVDGVFMPALSLNRNVQVTLHTGLEVPTNLGRPKLSGN
# B3: RNF25: human RING type E3 ligase expressed from lentiviral vector; listed twice (protein, UniProt Q96BH1 1-459, looked up)
# E3 ubiquitin-protein ligase …: MAASASAAAGEEDWVLPSEVEVLESIYLDELQVIKGNGRTSPWEIYITLHPATAEDQDSQYVCFTLVLQVPAEYPHEVPQISIRNPRGLSDEQIHTILQVLGHVAKAGLGTAMLYELIEKGKEILTDNNIPHGQCVICLYGFQEKEAFTKTPCYHYFHCHCLARYIQHMEQELKAQGQEQEQERQHATTKQKAVGVQCPVCREPLVYDLASLKAAPEPQQPMELYQPSAESLRQQEERKRLYQRQQERGGIIDLEAERNRYFISLQQPPAPAEPESAVDVSKGSQPPSTLAAELSTSPAVQSTLPPPLPVATQHICEKIPGTRSNQQRLGETQKAMLDPPKPSRGPWRQPERRHPKGGECHAPKGTRDTQELPPPEGPLKEPMDLKPEPHSQGVEGPPQEKGPGSWQGPPPRRTRDCVRWERSKGRTPGSSYPRLPRGQGAYRPGTRRESLGLESKDGS
# modifications: lentiviral expression
# B4: RNF144B: human RING type E3 ligase expressed from lentiviral vector (protein, UniProt Q7Z419 1-303, looked up)
# E3 ubiquitin-protein ligase …: MGSAGRLHYLAMTAENPTPGDLAPAPLITCKLCLCEQSLDKMTTLQECQCIFCTACLKQYMQLAIREGCGSPITCPDMVCLNHGTLQEAEIACLVPVDQFQLYQRLKFEREVHLDPYRTWCPVADCQTVCPVASSDPGQPVLVECPSCHLKFCSCCKDAWHAEVSCRDSQPIVLPTEHRALFGTDAEAPIKQCPVCRVYIERNEGCAQMMCKNCKHTFCWYCLQNLDNDIFLRHYDKGPCRNKLGHSRASVMWNRTQVVGILVGLGIIALVTSPLLLLASPCIICCVCKSCRGKKKKHDPSTT
# modifications: lentiviral expression
# notes: human RING type E3 ligase expressed from lentiviral vector
# B5: TRIM65: human RING type E3 ligase expressed from lentiviral vector (protein, UniProt Q6PJ69 2-517, looked up)
# E3 ubiquitin-protein ligase …: AAQLLEEKLTCAICLGLYQDPVTLPCGHNFCGACIRDWWDRCGKACPECREPFPDGAELRRNVALSGVLEVVRAGPARDPGPDPGPGPDPAARCPRHGRPLELFCRTEGRCVCSVCTVRECRLHERALLDAERLKREAQLRASLEVTQQQATQAEGQLLELRKQSSQIQNSACILASWVSGKFSSLLQALEIQHTTALRSIEVAKTQALAQARDEEQRLRVHLEAVARHGCRIRELLEQVDEQTFLQESQLLQPPGPLGPLTPLQWDEDQQLGDLKQLLSRLCGLLLEEGSHPGAPAKPVDLAPVEAPGPLAPVPSTVCPLRRKLWQNYRNLTFDPVSANRHFYLSRQDQQVKHCRQSRGPGGPGSFELWQVQCAQSFQAGHHYWEVRASDHSVTLGVSYPQLPRCRLGPHTDNIGRGPCSWGLCVQEDSLQAWHNGEAQRLPGVSGRLLGMDLDLASGCLTFYSLEPQTQPLYTFHALFNQPLTPVFWLLEGRTLTLCHQPGAVFPLGPQEEVLS
# B6: TRIM75: human RING type E3 ligase expressed from lentiviral vector; listed twice (protein, UniProt A6NK02 1-468, looked up)
# Tripartite motif-containing …: MAVAAALTGLQAEAKCSICLDYLSDPVTIECGHNFCRSCIQQSWLDLQELFPCPVCRHQCQEGHFRSNTQLGRMIEIAKLLQSTKSNKRKQEETTLCEKHNQPLSVFCKEDLMVLCPLCTQPPDHQGHHVRPIEKAAIHYRKRFCSYIQPLKKQLADLQKLISTQSKKPLELREMVENQRQELSSEFEHLNQFLDREQQAVLSRLAEEEKDNQQKLSANITAFSNYSATLKSQLSKVVELSELSELELLSQIKIFYESENESSPSIFSIHLKRDGCSFPPQYSALQRIIKKFKVEIILDPETAHPNLIVSEDKKRVRFTKRKQKVPGFPKRFTVKPVVLGFPYFHSGRHFWEIEVGDKSEWAIGICKDSLPTKARRPSSAQQECWRIELQDDGYHAPGAFPTPLLLEVKARAIGIFLDYEMGEISFYNMAEKSHICTFTDTFTGPLRPYFYVGPDSQPLRICTGTVCE
# B7: RNF122: human RING type E3 ligase expressed from lentiviral vector (protein, UniProt Q9H9V4 1-155, looked up)
# RING finger protein 122: MHPFQWCNGCFCGLGLVSTNKSCSMPPISFQDLPLNIYMVIFGTGIFVFMLSLIFCCYFISKLRNQAQSERYGYKEVVLKGDAKKLQLYGQTCAVCLEDFKGKDELGVLPCQHAFHRKCLVKWLEVRCVCPMCNKPIASPSEATQNIGILLDELV
# B8: TRIM74: human RING type E3 ligase expressed from lentiviral vector (protein, UniProt Q86UV6 1-250, looked up)
# Tripartite motif-containing …: MAWQVSLLELEDWLQCPICLEVFKESLMLQCGHSYCKGCLVSLSYHLDTKVRCPMCWQVVDGSSSLPNVSLAWVIEALRLPGDPEPKVCVHHRNPLSLFCEKDQELICGLCGLLGSHQHHPVTPVSTVCSRMKEELAALFSELKQEQKKVDELIAKLVKNRTRIVNESDVFSWVIRREFQELRHPVDEEKARCLEGIGGHTRGLVASLDMQLEQAQGTRERLAQAECVLEQFGNEDHHEFIWKFHSMASR
# modifications: lentiviral expression
# notes: as for B4
# B9: RNF212: human RING type E3 ligase expressed from lentiviral vector (protein, UniProt Q495C1 1-297, looked up)
# Probable E3 SUMO-protein …: MANWVFCNRCFQPPHRTSCFSLTNCGHVYCDACLGKGKKNECLICKAPCRTVLLSKHTDADIQAFFMSIDSLCKKYSRETSQILEFQEKHRKRLLAFYREKISRLEESLRKSVLQIEQLQSMRSSQQTAFSTIKSSVSTKPHGCLLPPHSSAPDRLESMEVDLSPSPIRKSEIAAGPARISMISPPQDGRMGPHLTASFCFIPWLTLSKPPVPGECVISRGSPCFCIDVCPHWLLLLAFSSGRHGELTNSKTLPIYAEVQRAVLFPFQQAEGTLDTFRTPAVSVVFPLCQFERKKSF
# B10: TRIML1: human RING type E3 ligase expressed from lentiviral vector (protein, UniProt Q8N9V2 1-468, looked up)
# Probable E3 ubiquitin-protein …: MSTADLMENLREELTCFICLDYFSSPVTTECGHSFCLVCLLRSWEEHNTPLSCPECWRTLEGPHFQSNERLGRLASIARQLRSQVLQSEDEQGSYGRMPTTAKALSDDEQGGSAFVAQSHGANRVHLSSEAEEHHREKLQEILNLLRVRRKEAQAVLTHEKERVKLCQEETKTCKQVVVSEYMKMHQFLKEEEQLQLQLLEQEEKENMRKLRNNEIKLTQQIRSLSKMIAQIESSSQSSAFESLEEVRGALERSEPLLLQCPEATTTELSLCRITGMKEMLRKFSTEITLDPATANAYLVLSEDLKSVKYGGSRQQLPDNPERFDQSATVLGTQIFTSGRHYWEVEVGNKTEWEVGICKDSVSRKGNLPKPPGDLFSLIGLKIGDDYSLWVSSPLKGQHVREPVCKVGVFLDYESGHIAFYNGTDESLIYSFPQASFQEALRPIFSPCLPNEGTNTDPLTICSLNSHV
# B11: TRIM72: human RING type E3 ligase expressed from lentiviral vector; listed twice (protein, UniProt Q6ZMU5 1-477, looked up)
# Tripartite motif-containing …: MSAAPGLLHQELSCPLCLQLFDAPVTAECGHSFCRACLGRVAGEPAADGTVLCPCCQAPTRPQALSTNLQLARLVEGLAQVPQGHCEEHLDPLSIYCEQDRALVCGVCASLGSHRGHRLLPAAEAHARLKTQLPQQKLQLQEACMRKEKSVAVLEHQLVEVEETVRQFRGAVGEQLGKMRVFLAALEGSLDREAERVRGEAGVALRRELGSLNSYLEQLRQMEKVLEEVADKPQTEFLMKYCLVTSRLQKILAESPPPARLDIQLPIISDDFKFQVWRKMFRALMPALEELTFDPSSAHPSLVVSSSGRRVECSEQKAPPAGEDPRQFDKAVAVVAHQQLSEGEHYWEVDVGDKPRWALGVIAAEAPRRGRLHAVPSQGLWLLGLREGKILEAHVEAKEPRALRSPERRPTRIGLYLSFGDGVLSFYDASDADALVPLFAFHERLPRPVYPFFDVCWHDKGKNAQPLLLVGPEGAEA
# Test system: coxsackievirus B3 (CVB3-GFP)
# Format: cell-based
# Settings: HeLa cells, GFP-positive cells within RFP-positive gate, replicate R1
row,Molecule,Percent Infected R1
1,B1,62%
2,B2,58.9%
3,B3,90.6% and 89.2%
4,B4,93.9%
5,B5,56.8%
6,B6,66.8% and 89.7%
7,B7,90.3%
8,B8,71.6%
9,B9,91.1%
10,B10,77.6%
11,B11,60.2% and 88.1%

# Same assay, conditions: HeLa cells, replicate R1
row,Molecule,Z score R1
1,B1,−0.338
2,B2,−0.378
3,B3,0.03 and 0.01
4,B4,0.07
5,B5,−0.404
6,B6,−0.277 and 0.01
7,B7,0.02
8,B8,−0.216
9,B9,0.03
10,B10,−0.14
11,B11,−0.361 and −0.01
